Experiments:
[1] = substrate: CC(C)=CCC/C(C)=C/CC/C(C)=C/COP(=O)(O)OP(=O)(O)O; experiment: Activity at human GGPPS
[2] = substrate: CC(C)=CCC/C(C)=C/CC/C(C)=C/COP(=O)(O)OP(=O)(O)O; experiment: Activity at Saccharomyces cerevisiae GGPPS

B1: Geranylgeranyl pyrophosphate synthase (Homo sapiens), O95749 (protein)
chain: MEKTQETVQRILLEPYKYLLQLPGKQVRTKLSQAFNHWLKVPEDKLQIIIEVTEMLHNASLLIDDIEDNSKLRRGFPVAHSIYGIPSVINSANYVYFLGLEKVLTLDHPDAVKLFTRQLLELHQGQGLDIYWRDNYTCPTEEEYKAMVLQKTGGLFGLAVGLMQLFSDYKEDLKPLLNTLGLFFQIRDDYANLHSKEYSENKSFCEDLTEGKFSFPTIHAIWSRPESTQVQNILRQRTENIDIKKYCVHYLEDVGSFEYTRNTLKELEAKAYKQIDARGGNPELVALVKHLSKMFKEENE
[1]
  Km: 0.71 µM

B2: Geranylgeranyl pyrophosphate synthase BTS1 (Saccharomyces cerevisiae S288c), Q12051 (protein)
chain: MEAKIDELINNDPVWSSQNESLISKPYNHILLKPGKNFRLNLIVQINRVMNLPKDQLAIVSQIVELLHNSSLLIDDIEDNAPLRRGQTTSHLIFGVPSTINTANYMYFRAMQLVSQLTTKEPLYHNLITIFNEELINLHRGQGLDIYWRDFLPEIIPTQEMYLNMVMNKTGGLFRLTLRLMEALSPSSHHGHSLVPFINLLGIIYQIRDDYLNLKDFQMSSEKGFAEDITEGKLSFPIVHALNFTKTKGQTEQHNEILRILLLRTSDKDIKLKLIQILEFDTNSLAYTKNFINQLVNMIKNDNENKYLPDLASHSDTATNLHDELLYIIDHLSEL
[2]
  Km: 3.2 µM

Source: ChEMBL document CHEMBL1145505, “Bisphosphonates target multiple sites in both cis- and trans-prenyltransferases” (Proc Natl Acad Sci U S A, 2007)
